We go through 4 molecules from article doi:10.64898/2025.12.30.697096 (bioRxiv, 2025).

No end group written: not given here. *: point of attachment. MTSL = nitroxide spin label, CC1(C)C=C(CS*)C(C)(C)N1[O]

First the molecules themselves.
B1: Glu3-tagged Bax α9 peptide (Bax residues Gly166 to Gly192) (peptide, UniProt Q07812 166-192, looked up)
chain: GTPTWQTVTIFVAGVLTASLTIWKKMG

The data set “cross-linking” concerns the molecule itself. The data set can be described thus: cross-linking.
Data set [1] has as its target B1. The data set is described as follows: NMR paramagnetic relaxation enhancement.

Regarding B1, in the data set “cross-linking”, the “stoichiometry N” value amounted to 2.

B2: Bax (α9) W188C with MTSL spin probe (peptide, UniProt Q07812 166-192, looked up)
chain: GTPTWQTVTIFVAGVLTASLTIC(MTSL)KKMG
Turning to B2, the binding result in data set [1] was “binds”.

B3: Bax (α9) G179C with MTSL spin probe (peptide, UniProt Q07812 166-192, looked up)
chain: GTPTWQTVTIFVAC(MTSL)VLTASLTIWKKMG
For B3, the binding result in data set [1] is listed as “binds”.

B4: Bax (α9) T172C with MTSL spin probe (peptide, UniProt Q07812 166-192, looked up)
chain: GTPTWQC(MTSL)VTIFVAGVLTASLTIWKKMG
Regarding B4, the binding result in data set [1] was “binds”.

The term stoichiometry N denotes a count of units in the complex or per binding partner.
